2 molecules from patent publication US20150086574A1 (CELLERANT THERAPEUTICS, published 2015) can be followed below.

Experiment [1] has as its target T cell Immunoglobulin- and Mucin domain-containing molecule 3 (TIM3), human, on cells (human) (UniProt Q8TDQ0). As to the kind of experiment: cell binding (flow cytometry), Daudi cells. (In general: A flow cytometer gives signals particle by particle.)
Experiment [2] shares this target. As to the kind of experiment: flow cytometry, CD34+ cells from a set of AML samples.
Experiment [3] shares this target. As to the kind of experiment: cell binding (flow cytometry), Pfeiffer cells.
The target is the same in experiment [4]. As to the kind of experiment: flow cytometry, PBMCs of AML patient 1, Blast population.
Experiment [5] has the same target. Put plainly: flow cytometry, PBMCs of AML patient 1, CD34+CD38- population.
For experiment [6] the target is unchanged. As to the kind of experiment: flow cytometry, PBMCs of AML patient 3, CD34+CD38- population.
Experiment [7] shares this target. As to the kind of experiment: flow cytometry, PBMCs of AML patient 3, Blast population.
The target is the same in experiment [8]. Put plainly: flow cytometry, bone marrow cells of AML patient 2, Blast population.
The target is the same in experiment [9]. As to the kind of experiment: flow cytometry; cells not named in the table (Example 5 uses Pfeiffer cells).
Experiment [10] has the same target. Put plainly: cell binding (flow cytometry), CMK cells.
The target is the same in experiment [11]. Put plainly: flow cytometry, PBMCs of AML patient 2, CD34+CD38- population.
Experiment [12] has the same target. As to the kind of experiment: flow cytometry, PBMCs of AML patient 2, Blast population.
The target is the same in experiment [13]. Put plainly: flow cytometry, bone marrow cells of AML patient 2, CD34+CD38- population.
The target is the same in experiment [14]. Put plainly: flow cytometry, PBMCs of AML patient 5, Blast population.
The target is the same in experiment [15]. As to the kind of experiment: flow cytometry, PBMCs of AML patient 5, CD34+CD38- population.
For experiment [16] the target is unchanged. As to the kind of experiment: flow cytometry, bone marrow cells of AML patient 1, Blast population.
For experiment [17] the target is unchanged. As to the kind of experiment: cell-based or functional assay.
Experiment [18] has the same target. Put plainly: flow cytometry, bone marrow cells of AML patient 1, CD34+CD38- population.
Experiment [19] shares this target. Put plainly: flow cytometry, PBMCs of AML patient 4, CD34+CD38- population.
Experiment [20] has the same target. Put plainly: flow cytometry, PBMCs of AML patient 4, Blast population.

Sequence of T cell Immunoglobulin- and Mucin domain-containing molecule 3 (TIM3), human, on cells (human) (Q8TDQ0 22-301 limits assumed): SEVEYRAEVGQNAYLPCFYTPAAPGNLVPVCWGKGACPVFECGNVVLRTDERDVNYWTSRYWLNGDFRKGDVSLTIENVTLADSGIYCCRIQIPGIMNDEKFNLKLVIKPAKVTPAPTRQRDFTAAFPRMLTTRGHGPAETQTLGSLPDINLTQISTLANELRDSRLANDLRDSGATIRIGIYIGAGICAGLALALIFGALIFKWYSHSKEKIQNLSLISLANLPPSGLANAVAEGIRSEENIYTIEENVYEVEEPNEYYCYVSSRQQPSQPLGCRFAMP

As to TIM3 2E2 (antibody), the results for the percentage of cell binding in [1], in experiment [3] and in experiment [10] were 90%, 97% and 19%, respectively. This molecule also returned a Positive/total (AML samples whose CD34+ cells were bound) (of 14 samples) in experiment [2] of 0. The molecule also showed a Geomean in [3] of 308. The percent binding in [4] is 2.92%; in [5], 3.26%; in experiment [6] it was 0.17%; in [7], 1.01%; in [8] it was 1.8%; in experiment [11] it was 64.8%. Moreover, the values for the percent binding in [12] and in experiment [13] were 59.3% and 1.6%, respectively. For the same molecule, the % Positive for TIM3 in experiment [9] worked out at 89.9%. Also, the GeoMean (Intensity of TIM3 binding) in [9] was 198.

B1: 8.16C10 (antibody, IgG1, V domains shown)
VH: QIQLQQSGPELVKPGASVKISYKASGYTFTDYYINWVKQKPGQGLEWIGWIYPGSGITKYNEKFKGKATLTVDSSSSTAYMQLSSLTSEDTAVYFCAIYGYDGGYAMDYWGQGTSVTVSS
VL: QIVLTQSPAIMSASPGEKVTLTCSASSSVSSSYLYWYQQKPGSSPKLWIYSTSNLASGVPARFSGGGSGTSYSLTISSMEAEDAASYFCHQWSTYPYTFGGGTKLEIKR
Consider B1, for which the percentage of cell binding is 67% in experiment [1] and 85% in experiment [3]. The percent binding in [14] came to 25%; in experiment [15] it was 25%; in experiment [16], 55.6%; in [4] it was 3.13%; in experiment [5] it was 4.67%; in experiment [18] it was 19.2%. The percent binding was 0.49% in experiment [6]; 87% in [19]; 0.83% in [7]; 2.61% in experiment [8]; 78% in experiment [20]; 76.4% in experiment [11]. The percent binding was determined as 68.1% in experiment [12] and 1.47% in [13]. Moreover, in experiment [17], the IFN-gamma release from activated CD4+ T cells (ELISA), antibody at 5 ug/ml (fold reduction) is > 2. Moreover, in [17], the IL-6 release from activated CD4+ T cells (ELISA), antibody at 5 ug/ml (fold reduction) is > 2. Also, the percent of antibody internalized after 20 minutes, Pfeiffer cells in experiment [17] is > 50%. This molecule registered a % Positive for TIM3 in experiment [9] of 92.5%. The same molecule registered a GeoMean (Intensity of TIM3 binding) in experiment [9] of 83.8.
